Assay results taken from US6875851.

Tests used:
[1] = target: DPP IV from P. gingivalis (Porphyromonas gingivalis); assay: cell-based or functional assay
[2] = system: Peptide 23

Residual activity of DPP IV, % (inhibitor at 10 mM) [1]	Substance	Cleavage site [2]
1%	Ala-Gly-Pro (peptide)	–
30%	Ala-Pro (peptide)	–
–	DPP IV from P. gingivalis	H-Ser-Pro-↑-Tyr-Ser-Ser-Asp-Thr-Thr
0%	Val-Pro (peptide)	–
